Test results: the supplement of paper PMC10567573

B1: C22orf31 (parent)
chain: YSLELGKAIKQKLWEALCSQGAIS

Variants of: B1
Experiment: protein stability index of a GFP-peptide fusion (GPS, HEK-293T) (PSI 1-6); higher = more stable
Conditions: c terminus: a fixed tail appended
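Also: lentivirally expressed fusions sorted by FACS into six bins by GFP to DsRed ratio, PSI derived from sequencing read proportions per bin multiplied by bin number.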

Variant	protein stability index
YSLELGKAIKQKPWEALCSQGAIS [L13P]	2.04
YSLELGKAIKQKMWEALCSQGAIS [L13M]	2.17
YSLELGKAIKQKFWEALCSQGAIS [L13F]	1.13
YSLELGKAIKQKSWEALCSQGAIS [L13S]	2.24
YSLELGKAIKQKRWEALCSQGAIS [L13R]	2.05
YSLELGKAIKQKQWEALCSQGAIS [L13Q]	1.92
YSLELGKAIKQKAWEALCSQGAIS [L13A]	1.41
YSLELGKAIKQKDWEALCSQGAIS [L13D]	2.37
YSLELGKAIKQKKWEALCSQGAIS [L13K]	1.47
YSLELGKAIKQKIWEALCSQGAIS [L13I]	2.33
YSLELGKAIKQKCWEALCSQGAIS [L13C]	1.35
YSLELGKAIKQKNWEALCSQGAIS [L13N]	2.63
YSLELGKAIKQKYWEALCSQGAIS [L13Y]	1.56
YSLELGKAIKQKHWEALCSQGAIS [L13H]	2.48
YSLELGKAIKQKGWEALCSQGAIS [L13G]	1.88
YSLELGKAIKQKEWEALCSQGAIS [L13E]	3.05
YSLELGKAIKQKTWEALCSQGAIS [L13T]	1.88
YSLELGKAIKQKWWEALCSQGAIS [L13W]	1.94
YSLELGKAIKQKLWEYLCSQGAIS [A16Y]	1.89
YSLELGKAIKQKLWENLCSQGAIS [A16N]	1.29
YSLELGKAIKQKLWEMLCSQGAIS [A16M]	2.69
YSLELGKAIKQKLWEWLCSQGAIS [A16W]	2.4
YSLELGKAIKQKLWEQLCSQGAIS [A16Q]	1.89
YSLELGKAIKQKLWERLCSQGAIS [A16R]	2.1

Variant	protein stability index
YSLELGKAIKQKLWELLCSQGAIS [A16L]	1.77
YSLELGKAIKQKLWECLCSQGAIS [A16C]	2.24
YSLELGKAIKQKLWEELCSQGAIS [A16E]	1.74
YSLELGKAIKQKLWESLCSQGAIS [A16S]	2.54
YSLELGKAIKQKLWEGLCSQGAIS [A16G]	2.26
YSLELGKAIKQKLWETLCSQGAIS [A16T]	3.32
YSLELGKAIKQKLWEPLCSQGAIS [A16P]	2.3
YSLELGKAIKQKLWEDLCSQGAIS [A16D]	1.98
YSLELGKAIKQKLWEHLCSQGAIS [A16H]	1.83
YSLELGKAIKQKLDEALCSQGAIS [W14D]	3.34
YSLELGKAIKQKLPEALCSQGAIS [W14P]	3.34
YSLELGKAIKQKLCEALCSQGAIS [W14C]	1.62
YSLELGKAIKQKLEEALCSQGAIS [W14E]	2.52
YSLELGKAIKQKLQEALCSQGAIS [W14Q]	1.83
YSLELGKAIKQKLVEALCSQGAIS [W14V]	3.18
YSLELGKAIKQKLSEALCSQGAIS [W14S]	1.85
YSLELGKAIKQKLLEALCSQGAIS [W14L]	3.37
YSLELGKAIKQKLNEALCSQGAIS [W14N]	2.21
YSLELGKAIKQKLYEALCSQGAIS [W14Y]	1.78
YSLELGKAIKQKLAEALCSQGAIS [W14A]	1.06
YSLELGKAIKQKLKEALCSQGAIS [W14K]	2
YSLELGKAIKQKLMEALCSQGAIS [W14M]	2.24
YSLELGKAIKQKLHEALCSQGAIS [W14H]	1.34
YSLELGKAIKQKLIEALCSQGAIS [W14I]	3.71

Variant	protein stability index
YSLELGKAIKQKLTEALCSQGAIS [W14T]	1.98
YSLELGKAIKQKLGEALCSQGAIS [W14G]	3.06
YSLELGKAIKQKLWEAMCSQGAIS [L17M]	2.88
YSLELGKAIKQKLWEATCSQGAIS [L17T]	2.26
YSLELGKAIKQKLWEAICSQGAIS [L17I]	2.85
YSLELGKAIKQKLWEAHCSQGAIS [L17H]	1.47
YSLELGKAIKQKLWEACCSQGAIS [L17C]	3.17
YSLELGKAIKQKLWEAACSQGAIS [L17A]	1.25
YSLELGKAIKQKLWEAPCSQGAIS [L17P]	2.08
YSLELGKAIKQKLWEAVCSQGAIS [L17V]	3.22
YSLELGKAIKQKLWEARCSQGAIS [L17R]	2.25
YSLELGKAIKQKLWEASCSQGAIS [L17S]	2.41
YSLELGKAIKQKLWEAFCSQGAIS [L17F]	2.17
YSLELGKAIKQKLWEAKCSQGAIS [L17K]	2.11
YSLELGKAIKQKLWEAGCSQGAIS [L17G]	2.05
YSLELGKAIKQKLWEAECSQGAIS [L17E]	1.69
YSLELGKAIKQKLWEAYCSQGAIS [L17Y]	2.06
YSLELGKAIKQKLWEADCSQGAIS [L17D]	2.62
YSLELGKAIKQKLWEAWCSQGAIS [L17W]	1.19
YSLELGKAIKQKLWEANCSQGAIS [L17N]	1.86
YSLELGKAIKQKLWEAQCSQGAIS [L17Q]	1.87
YSLELGKAIKQKLWEALCSQGAIR [S24R]	2.69
YSLELGKAIKQKLWEALCSQGAIY [S24Y]	3.7
YSLELGKAIKQKLWEALCSQGAIN [S24N]	2.63

Variant	protein stability index
YSLELGKAIKQKLWEALCSQGAIQ [S24Q]	2.92
YSLELGKAIKQKLWEALCSQGAIT [S24T]	1.83
YSLELGKAIKQKLWEALCSQGAIH [S24H]	2.01
YSLELGKAIKQKLWEALCSQGAIA [S24A]	2.68
YSLELGKAEKQKLWEALCSQGAIS [I9E]	2.97
YSLELGKADKQKLWEALCSQGAIS [I9D]	2.39
YSLELGKAQKQKLWEALCSQGAIS [I9Q]	1.94
YSLELGKAGKQKLWEALCSQGAIS [I9G]	1.84
YSLELGKAMKQKLWEALCSQGAIS [I9M]	1.07
YSLELGKAKKQKLWEALCSQGAIS [I9K]	2.24
YSLELGKATKQKLWEALCSQGAIS [I9T]	2.38
YSLELGKASKQKLWEALCSQGAIS [I9S]	1.97
YSLELGKAFKQKLWEALCSQGAIS [I9F]	2.02
YSLELGKANKQKLWEALCSQGAIS [I9N]	2.07
YSLELGKAYKQKLWEALCSQGAIS [I9Y]	3.02
YSLELGKAVKQKLWEALCSQGAIS [I9V]	2.26
YSLELGKAPKQKLWEALCSQGAIS [I9P]	1.99
YSLELGKAHKQKLWEALCSQGAIS [I9H]	2.07
YSLELGKARKQKLWEALCSQGAIS [I9R]	1.87
YSLELGKAIKQKLWEALCSPGAIS [Q20P]	2.21
YSLELGKAIKQKLWEALCSVGAIS [Q20V]	2.58
YSLELGKAIKQKLWEALCSNGAIS [Q20N]	1.62
YSLELGKAIKQKLWEALCSRGAIS [Q20R]	2.99
YSLELGKAIKQKLWEALCSFGAIS [Q20F]	1.95

Variant	protein stability index
YSLELGKAIKQKLWEALCSGGAIS [Q20G]	3.45
YSLELGKAIKQKLWEALCSEGAIS [Q20E]	2.79
YSLELGKAIKQKLWEALCSIGAIS [Q20I]	2.97
YSLELGKAIKQILWEALCSQGAIS [K12I]	3.58
YSLELGKAIKQQLWEALCSQGAIS [K12Q]	2.26
YSLELGKAIKQRLWEALCSQGAIS [K12R]	1.53
YSLELGKAIKQDLWEALCSQGAIS [K12D]	1.56
YSLELGKAIKQYLWEALCSQGAIS [K12Y]	1.93
YSLELGKAIKQWLWEALCSQGAIS [K12W]	2.25
YSLELGKAIKQPLWEALCSQGAIS [K12P]	1.51
YSLELGKAIKQELWEALCSQGAIS [K12E]	1.85
YSLELGKAIKQHLWEALCSQGAIS [K12H]	1.98
YSLELGKAIKQGLWEALCSQGAIS [K12G]	1.07
YSLELGKAIKQCLWEALCSQGAIS [K12C]	2.03
YSLELGKAIKQALWEALCSQGAIS [K12A]	3.38
YSLELGKAIKQTLWEALCSQGAIS [K12T]	2.87
YSLELGKAIKQFLWEALCSQGAIS [K12F]	2.11
YSLELGKAIKQLLWEALCSQGAIS [K12L]	2.66
YSLELGKAIKQSLWEALCSQGAIS [K12S]	1.39
YSLELGKAIKQVLWEALCSQGAIS [K12V]	2.49
YSLELGKAIKQNLWEALCSQGAIS [K12N]	1.93
YSLELGKAIKQKLWEALCSQGDIS [A22D]	1.59
YSLELGKAIKQKLWEALCSQGKIS [A22K]	3.13
YSLELGKAIKQKLWEALCSQGSIS [A22S]	3.11

Variant	protein stability index
YSLELGKAIKQKLWEALCSQGRIS [A22R]	3.87
YSLELGKAIYQKLWEALCSQGAIS [K10Y]	1.9
YSLELGKAIFQKLWEALCSQGAIS [K10F]	3.08
YSLELGKAIAQKLWEALCSQGAIS [K10A]	1.52
YSLELGKAICQKLWEALCSQGAIS [K10C]	2.31
YSLELGKAIDQKLWEALCSQGAIS [K10D]	1.63
YSLELGKAIRQKLWEALCSQGAIS [K10R]	1.15
YSLELGKAIPQKLWEALCSQGAIS [K10P]	2.27
YSLELGKAIEQKLWEALCSQGAIS [K10E]	2.55
YSLELGKAIHQKLWEALCSQGAIS [K10H]	1.95
YSLELGKAIMQKLWEALCSQGAIS [K10M]	2.22
YSLELGKAIIQKLWEALCSQGAIS [K10I]	2.95
YSLELGKAIQQKLWEALCSQGAIS [K10Q]	2.64
YSLELGKAINQKLWEALCSQGAIS [K10N]	2.54
YSLELGKAIKQKLWEALCSQGAHS [I23H]	1.63
YSLELGKAIKQKLWEALCSQGADS [I23D]	1.62
YSLELGKAIKQKLWEALCSQGAPS [I23P]	1.6
YSLELGKAIKQKLWEALCSQGASS [I23S]	2.85
YSLELGKAIKQKLWEALCSQGAAS [I23A]	1.75
YSLELGKAIKQKLWEALCSQGAES [I23E]	2.37
YSLELGKAIKQKLWEALCSQGAMS [I23M]	2.22
YSLELGKAIKQKLWEALCSQGANS [I23N]	1.7
YSLELGKAIKQKLWFALCSQGAIS [E15F]	3
YSLELGKAIKQKLWTALCSQGAIS [E15T]	1.64

Variant	protein stability index
YSLELGKAIKQKLWHALCSQGAIS [E15H]	1.65
YSLELGKAIKQKLWSALCSQGAIS [E15S]	2.19
YSLELGKAIKQKLWWALCSQGAIS [E15W]	1.9
YSLELGKAIKQKLWQALCSQGAIS [E15Q]	1.41
YSLELGKAIKQKLWKALCSQGAIS [E15K]	2.73
YSLELGKAIKQKLWCALCSQGAIS [E15C]	3
YSLELGKAIKQKLWNALCSQGAIS [E15N]	3
YSLELGKAIKQKLWGALCSQGAIS [E15G]	1.31
YSLELGKAIKQKLWPALCSQGAIS [E15P]	2.25
YSLELGKAIKQKLWRALCSQGAIS [E15R]	3.18
YSLELGKAIKQKLWEALCSQIAIS [G21I]	4.15
YSLELGKAIKQKLWEALCSQDAIS [G21D]	1.94
YSLELGKAIKQKLWEALCSQAAIS [G21A]	4.53
YSLELGKAIKQKLWEALCSQFAIS [G21F]	2.94
YSLELGKAIKQKLWEALCSQNAIS [G21N]	3.07
YSLELGKAIKQKLWEALCFQGAIS [S19F]	2.56
YSLELGKAIKQKLWEALCCQGAIS [S19C]	2.31
YSLELGKAIKQKLWEALCNQGAIS [S19N]	3.94
YSLELGKAIKQKLWEALCRQGAIS [S19R]	2.46
YSLELGKAIKQKLWEALCQQGAIS [S19Q]	1.95
YSLELGKAIKQKLWEALCAQGAIS [S19A]	4.18
YSLELGKAIKQKLWEALCDQGAIS [S19D]	1.88
YSLELGKAIKGKLWEALCSQGAIS [Q11G]	3.21
YSLELGKAIKRKLWEALCSQGAIS [Q11R]	3.36

Variant	protein stability index
YSLELGKAIKIKLWEALCSQGAIS [Q11I]	1.75
YSLELGKAIKPKLWEALCSQGAIS [Q11P]	1.36
YSLELGKAIKFKLWEALCSQGAIS [Q11F]	3.62
YSLELGKAIKAKLWEALCSQGAIS [Q11A]	2.47
YSLELGKAIKWKLWEALCSQGAIS [Q11W]	3.82
YSLELGKAIKYKLWEALCSQGAIS [Q11Y]	1.92
YSLELGKAIKSKLWEALCSQGAIS [Q11S]	2.01
YSLELGKAIKQKLWEALASQGAIS [C18A]	1.69
YSLELGKAIKQKLWEALGSQGAIS [C18G]	1.53
YSLELGKAIKQKLWEALMSQGAIS [C18M]	2.12
YSLELGKAIKQKLWEALHSQGAIS [C18H]	1.66
YSLELGKAIKQKLWEALYSQGAIS [C18Y]	2.52
YSLELGKAIKQKLWEALNSQGAIS [C18N]	3.44
YSLELGKAIKQKLWEALSSQGAIS [C18S]	1.91
YSLELGKAIKQKLWEALISQGAIS [C18I]	3.32
YSLELGKAIKQKLWEALKSQGAIS [C18K]	4.02
YSLELGKAIKQKLWEALFSQGAIS [C18F]	1.64
YSLELGKAIKQKLWEALVSQGAIS [C18V]	2.29
YSLELGKAIKQKLWEALPSQGAIS [C18P]	2.26
YSLELGKAIKQKLWEALDSQGAIS [C18D]	2.09
YSLELGKAIKQKLWEALESQGAIS [C18E]	2.17
